Assay results taken from a protein production outcome set (Wang et al. 2014).

Assay: label from the status in PepcDB records

Sequence | protein production
MHFHLRNLRLHMETNGTPQSPAGDWRSYERMLLPPIQDLHKLGVYEEHGGYDRLRRVLEDDAFEPSDVTDEVKASGLTGRGGAGFPTGIKWTFMPEPDERPRFIGVNADESEPGTFKDRQVMEYNPHLMLEGILLAGYALHIDTAYVYIRGEYTDWIVHLKEQLENAYEAGYVGENIMGSDFTMDIVLHKGAGAYICGEETSLMESLEGKRGYPRYKPPFPAQSGIFGSPTTINNAETLAHVPLIVEQGGEAYSNIGAGDMPGPALYGMSGHVKNPGVYEFPTGMLLTDMIYDVCGGMARDKDLKAVVPGGSSVPPVPADQIDGISMNDESLGEVGSRTGTFCPLVLDEETDMVSFLRRVAHFYQDETCGQCTPCREGTSWLEKILARIDEGEGRMRDIDLLLELCDNMDGGRTICAFADGAVGPVRATVKRFREEFAAKCQASVHPVSTEVSAGAGSAVAATE | failed
MHFRDTSERQSDAVNESSLDSVHLQMIKGMLYQQRQDFSSQDSVSRKKVLSLNLKQTSKTEEIKNVLGGSTCYNYSVKDLQEISGSELCFPSGQKIKSAYLPQRQIHIPAVFQSPAHYKQTFTSCLIEHLNILLFGLAQNLQKALSKVDISFYTSLKGEKLKNAENNVPSCHHSQPAKLVMVKKEGPNKGRLFYTCDGPKADRCKFFKWLEDVTPGYSTQEGARPGMVLSDIKSIGLYLRSQKIPLYEECQLLVRKGFDFQRKQYGKLKKFTTVNPEFYNEPKTKLYLKLSRKERSSAYSKNDLWVVSKTLDFELDTFIACSAFFGPSSINEIEILPLKGYFPSNWPTNMVVHALLVCNASTELTTLKNIQDYFNPATLPLTQYLLTTSSPTIVSNKRVSKRKFIPPAFTNVSTKFELLSLGATLKLASELIQVHKLNKDQATALIQIAQMMASHESIEEVKELQTHTFPITIIHGVFGAGKSYLLAVVILFFVQLFEKSEAPTIGNARPWKLLISSSTNVAVDRVLLGLLSLGFENFIRVGSVRKIAKPILPYSLHAGSENESEQLKELHALMKEDLTPTERVYVRKSIEQHKLGTNRTLLKQVRVVGVTCAACPFPCMNDLKFPVVVLDECSQITEPASLLPIARFECEKLILVGDPKQLPPTIQGSDAAHENGLEQTLFDRLCLMGHKPILLRTQYRCHPAISAIANDLFYKGALMNGVTEIERSPLLEWLPTLCFYNVKGLEQIERDNSFHNVAEATFTLKLIQSLIASGIAGSMIGVITLYKSQMYKLCHLLSAVDFHHPDIKTVQVSTVDAFQGAEKEIIILSCVRTRQVGFIDSEKRMNVALTRGKRHLLIVGNLACLRKNQLWGRVIQHCEGREDGLQHANQYEPQLNHLLKDYFEKQVEEKQKKKSEKEKSKDKSHS | failed
MHIAIIGDQAATRQATTQLLSQLTTPTQPLQVTAYPTAEAFLFADQPADLLLLDIKLGSGMDGMTLAKQIREHDAATAIAFVSNYDEFVFDGYDVNALDYVIKPITSDKLQHLISKVAAQTQPKLLVFTTANGIQRVAMYDISAIEVTDHRLQVHTQKMTYTVAGQLKEFLPQLDENFIQIYRSIVINLNFLSQLEKNTVVMADGTSYPVSRQQAPLVKQAFFKHFRGLAHDSELEHHHHHH | failed
MHIKSAIIVVSDRISTGTRENKALPLLQRLMSDELQDYSYELISEVVVPEGYDTVVEAIATALKQGARFIITAGGTGIRAKNQTPEATASFIHTRCEGLEQQILIHGSTHTHLAGLSRGIVGVTGRDDHAALIVNAPSSSGGITDTWAVISPVIPNIFEGLDAS | not failed
MHKEIAKELLLLAGGKNNIISISHCTTRLRFDVKDETKIDIHAIENLQGVQGTFFRYGLFQIIFGAGVVNKIYKEVVHVWETAPSEEPVHQKKASRKLNPAAAFAKTLSDI | failed
MHLKNNQTLANGATVTIYPTTTEPTNYVVYLHGGGMIYGTKSDLPEELKELFTSNGYTVLALDYLLAPNTKIDHILRTLTETFQLLNEEIIQNQSFGLCGRSAGGYLMLQLTKQLQTLNLTPQFLVNFYGYTDLEFIKEPRKLLKQAISAKEIAAIDQTKPVWDDPFLSRYLLYHYSIQQALLPHFYGLPENGDWSAYALSDETLKTFPPCFSTASSSDEEVPFRYSKKIGRTIPESTFKAVYYLEHDFLKQTKDPSVITLFEQLDSWLKER | not failed
MHLLQAVSYRYLILAVIGLPEKYRKPQALACHHRRTAMNRLSAFALAAAIGIAAAPVAQAGELWRATGLEQPESALFDAANNRIIVSNIVGNPGEADGNGYLSVLSLDGKTITQHWTDGMDAPKGMAISGGKLYVADITKVRVVDLASGKLIASIVVPNAVFLNDMTSDHTGKVYVSDMLADTIYRIDGDRPELFVRDALLASPNGVFADGDRLIVASWGKGIKPDFSTAEPGGLLAVDLASKAVSPLPGAQKFADLDGVIAIGDTIYATAYMTGTLYRYKAGGAPEAVAHFKPGSADIGTDGKSILYVPLMNEGEVAALKLD | failed
MHLQKLKNIVWTKRIGHLFERVTDIENIKRAIKRAAKRKTHRPSVQRILNDIDSYARKIQEMLVNETFVPAKYTIREIYDGIKKKKRVIAVPRFYPDQCIHHAFVQVFREIVEHGADKFSCGCVPGKGTDGARKMIKHWIKSDPIGTSKVLKLDVHHCYPTMNHEALRQKLEKKIKDRKLLNLAFKLIASYQQPMADHTRMLPEVDAVGIPVGLYTSPWFCNFFFQDIDHMIAEKTGAKHHTRYVDDIVLFDSNKRRLHKALRMIADELRKVKMQVKANWQVFPLKDRPLDFLGYKFHAGAWTTLRKSIMFRISHKAKKISKISYISPTNASGMISYMGFIYNSDSWNFWKERVKPFINLKLLKGVVSNENRKQHQAACAA | failed
MHLRDRPGFGPGGPFRFRALPRAADKGTMMFKKILIANRGEIACRVIKTARKMGIQTVAVYSDADRNALHVSMADEAIHIGPPPANQSYIVIDKIMEAIKASGAEAVHPGYGFLSERMDFAAALEAAGVVFIGPPSGAIEAMGDKITSKKLAKEAGVSTVPGYMGLIADADEAVKISNEIGYPVMIKASAGGGGKGMRIAWSEAEVKEGFESSKNEAANSFGDDRIFIEKFVTQPRHIEIQVLADKHGNCVYLHERECSIQRRNQKVIEEAPSPFLDEATRKAMGEQACALAKAVGYASAGTVEFIVDGQKNFYFLEMNTRLQVEHPVTELITGIDLVEQMIRVAAGEKLPFQQSDLKINGWAMESRLYAEDPYRNFLPSIGRLTRYRPPVESVTPTSVVRNDTGVYEGGEISMYYDPMIAKLCTWAPTREAAIEEMRLALDTFEVEGIGHNLPFVGAVMDHPRFVKGDITTAFIAEEYPDGFQGAVLDEPTLRRVAAAAAAMNRVAEIRRTRISGTMNNHERHVGVDWVVALQGESYHVSIAADREGSTVSFSDGSSLRVTSDWTPGQPLASLMVDGRPLVMKVGKIPMGFRLRLRGADLKVNVRTPRQAELALLMPEKLPPDTSKYLLCPMPGLVVKINVAEGDEVQEGQALATVEAMKMENILRAERRGTVKKIAAAPGASLRVDDVIMEFE | failed
MHLSAYLLLVASLLFALFFAGTAAIQIWQGRTTALPWMEKGHLMLTAFMSVASAVLLHALANFDFSLVYVASYTDRALPLFYRLTAFWAGQAGSMLFWGWSVALFGVFFLFSPVYRRVSEPTRMWFWLLFLAMMGFFLLVLTCWSNPFTVVDPAPADGNGLNPLLQNPGMIFHPPLLFLGYGGFAIPGCLALAQSLSGMRLSEGAWADHARPFTLVAWLFLTAGIVLGGWWAYMELGWGGYWAWDPVENASLIPWLIASAYLHTAVIEARRNKLHRVNTFLMALTTISAFFATYLVRSGVVESLHAFGDGGVGTPLLIFIIVFTAVALGGSILWKHPDAKPLSGVESREGFLVMVAWVLLALGAIILVATMWPVFSKFWVDKPVGLEPAFYNRVCLPLFAVLVVMLAICPWLGWKGGLRNKVGAVTALGLFVGAAGGIWAAGYTIPTAVLGAAGAIAALGGIVMLLATEPHLRRSPQSLAAYGVHIGLALTALGVAFSGPYKTEHEVIMQQGDTVQVAGYDVTFKALYEGEGPGYIFIEAELDVKKNGSDVGMAQPQRRIYSKFGKQAFAEASTIPGLGNEFYAVLLGVDREGKATLHLNVTPLINWVWIGSIIMCLFPFIGMRRRKTAEA | failed
MHLSLMISRHYINRMKLSLMHISILAGIPEEFKVNIYIGWLFKLIPLIMGLICIALGGFVLESSGQSEYFVAGHVLISLAAICLALFTTAFIIISQLTRGVNTFYNTLFPIIGYAGSIITMIWGWALLAGNDVMADEFVAGHVIFGVGMIAACVSTVAASSGHFLLIPKNAAGSKSDGTPVQAYSSLIGNCLIAVPVLLTLLGFIWSITLLRSADITPHYVAGHVLLGLTAICACLIGLVATIVHQTRNTFSTKEHWLWCYWVIFLGSITVLQGIYVLVSSDASARLAPGIILICLGMICYSIFSKVWLLALVWRRTCSLANRIPMIPVFTCLFCLFLASFLAEMAQTDMGYFIPSRVLVGLGAVCFTLFSIVSILEAGSAKK | failed
MHLTKTWLAQLPLTDIQQVQPVSGGDINAAFQIITRHHQYFLKVQPHNDVTFFDHEVAGLRLLGAVTKTPRVIASGTIATDGYLLLDWLATGTGSQSALGAAVAKVHHQHHAQFGLDHDFTAGKLPKINHWQTDWATFYTQQRLDVLVNLAKEHHLWSETREMHYHRLRQQLLQDSHMHTVKPSLLHGDLWSGNYLFDTTGTPVLIDPDVFYGDREMDLAMTTIFGGFDTDFYQAYQAAYPVAPGMQDRLPSYQLYYLLAHLNLFGETYGPAVDRILMQY | failed
MHNFEEELTCPICYSIFEDPRVLPCSHTFCRNCLENILQASGNFYIWRPLRIPLKCPNCRSITEIAPTGIESLPVNFALRAIIEKYQQEDHPDIVTCPEHYRQPLNVYCLLDKKLVCGHCLTIGQHHGHPIDDLQSAYLKEKDTPQKLLEQLTDTHWTDLTHLIEKPKEQKSHSEKMIQGDKEAVLQYFKELNDTLEQKKKSFLTALCDVGNLINQEYTPQIERMKEIREQQLELMALTISLQEESPLKFLEKVDDVRQHVQILKQRPLPEVQPVEIYPRVSKILKEEWSRTEIGQIKNVLIPKMKISPKRMSCSWPGTPVYSVAWGPDSEKVLYTAGKQLIIKPLQPNAKVLQWKAHDGIILKVDWNSVNDLILSAGEDCKYKVWDSYGRPLYNSQPHEHPITSVAWAPDGELFAVGSFHTLRLCDKTGWSYALEKPNTGSIFNIAWSIDGTQIAGACGNGHVVFAHVVEQHWEWKNFQVTLTKRRAMQVRNVLNDAVDLLEFRDRVIKASLNYAHLVVSTSLQCYVFSTKNWNTPIIFDLKEGTVSLILQAERHFLLVDGSSIYLYSYEGRFISSPKFPGMRTDILNAQTVSLSNDTIAIRDKADEKIIFLFEASTGKPLGDGKFLSHKNEILEIALDQKGLTNDRKIAFIDKNRDLCITSVKRFGKEEQIIKLGTMVHTLAWNDTCNILCGLQDTRFIVWYYPNTVYVDRDILPKTLYERDASEFSKNPHIVSFVGNQVTIRRADGSLVHISITPYPAILHEYVSSSKWEDAVRLCRFVKEQTMWACLAAMAVANRDMTTAEVAYAAIGEIDKVQYINSIKNLPSKESKMAHILLFSGNIQEAEIVLLQAGLVYQAIQININLYNWERALELAVKYKTHVDTVLAYRQKFLETFGKQETNKRYLHYAEGLQIDWEKIKAKIEMEITKEREQSSSSQSSKSIGLKP | failed
MHPALVLAAIALIAIKLDPRFVLGLLVLLTLIYGKKRGFSLKLRNVTEDESYFNAFLFSTILSALSCFSLPKDVVFASIFLISVHNYRKNALWNIAVYTTASLLYFLCYHAVNGVELRLAHTFFISLSGGLTAALVESVDTNADRRLTLLLAISSVFTIFKMYVPSASIYSLAFAFLLSFFVSLLALYAKVADESGLMSATIVGTTLILFADIRFFAVILLFYALGSAITKYKYSVKLERGIAEQAGGARGYANVFGNSLAPLFFAVQFGVSGDAIFAAAFVAAVAAALADTMASEIGKAEEKVYLITNFSRVEPGTSGGISVKGEFAALFGCIVTALLSLLLGIIGFDVLLPVTLSAFAGVHIDSLLGATLEKKGYLTNSAVNFLGTLSAGIICVLLLLPLL | failed
MHQQIIKFWFEELTPQNWFENNPELDKHIASRFASVLEQAARCELFNWRDSAQGRLAEIIVLDQFSRNVYRNTPKAFAQDPLALALAQEAIRLGHDQELAPEQLSFLYMPFMHSESRLIHVEAEKLFRASGLENNYDFELKHKAIIDQFGRYPHRNAILGRESTPEELAFLQQPGSSF | not failed
